# B1: chicken mitochondrial poly(A) RNA polymerase, mature wild type (residues 37–568) (enzyme, Gallus gallus, UniProt F1NBW0 37-568, looked up)
# chain: AGGAEETDAEVSARKKTFTEVQTERLEQADRSVLIKCPSKLNEKKLLQYLSSHGKIDNYFFFENRGIHALIEFSEKSSVASLQAVTGIPKAAEHHVVPYKSRLFTFTLKNPGSQAAEERPVKISPQSHIPVNELIPKLCHADSISSQMYILLNEYQLTEENIKLRYLACSLVRDFARAYFPDSTVKPFGSSVNTFGKLGCDVDMFLDFHDIQKHATKMKKGPFEMEYQMKRLPSERLATQKILSIIGDCLDNFGPGYSSVQKILNARCPLVKFSHQPTGFQCDLSVSNSIAIRCSELLYIYGCLDPRVRALVFSLRCWARVHGLTNSVPGTWITNFSLTMMIMFFLQKRSPPIIPTLDQLKELADEKDKHVIGGYDCSFVSDLSKIKPTKNTETLDELLCDFFQYFGNFDFRKNSLNLRKGKEVNKPESSPLYIWNPFEQDLNISKNVNQPQLEKFVAMARESAWILQKEDKTQQMINKEPWGLAAVLIPFGKSNPNTMKSRTKGIGSETIKSLLDSLKLSDANNLQKAVGK
# notes: Expression construct pNIC28-BsaI; also called mtPAP; WT mtPAP; source: E. coli KRX/pRARE2, purified (HisTrap, TEV cleavage, HiTrap Heparin)
# B2: chicken mtPAP N472D mutant (residues 37–568) (enzyme, Gallus gallus, UniProt F1NBW0 37-568, looked up)
# chain: AGGAEETDAEVSARKKTFTEVQTERLEQADRSVLIKCPSKLNEKKLLQYLSSHGKIDNYFFFENRGIHALIEFSEKSSVASLQAVTGIPKAAEHHVVPYKSRLFTFTLKNPGSQAAEERPVKISPQSHIPVNELIPKLCHADSISSQMYILLNEYQLTEENIKLRYLACSLVRDFARAYFPDSTVKPFGSSVNTFGKLGCDVDMFLDFHDIQKHATKMKKGPFEMEYQMKRLPSERLATQKILSIIGDCLDNFGPGYSSVQKILNARCPLVKFSHQPTGFQCDLSVSNSIAIRCSELLYIYGCLDPRVRALVFSLRCWARVHGLTNSVPGTWITNFSLTMMIMFFLQKRSPPIIPTLDQLKELADEKDKHVIGGYDCSFVSDLSKIKPTKNTETLDELLCDFFQYFGNFDFRKNSLNLRKGKEVNKPESSPLYIWDPFEQDLNISKNVNQPQLEKFVAMARESAWILQKEDKTQQMINKEPWGLAAVLIPFGKSNPNTMKSRTKGIGSETIKSLLDSLKLSDANNLQKAVGK
# notes: mitochondrial poly(A) polymerase (mtPAP), Gallus gallus, residues 37-568, N472D (counterpart of human N478D); Purified by the same procedure as the wild type; also called N472D mtPAP; SPAX4 N472D mtPAP mutant; source: E. coli KRX/pRARE2, purified (HisTrap, TEV cleavage, HiTrap Heparin)
# B3: chicken mtPAP triple mutant K76E, K80–81E (enzyme, Gallus gallus, UniProt F1NBW0 37-568, looked up)
# chain: AGGAEETDAEVSARKKTFTEVQTERLEQADRSVLIKCPSELNEEELLQYLSSHGKIDNYFFFENRGIHALIEFSEKSSVASLQAVTGIPKAAEHHVVPYKSRLFTFTLKNPGSQAAEERPVKISPQSHIPVNELIPKLCHADSISSQMYILLNEYQLTEENIKLRYLACSLVRDFARAYFPDSTVKPFGSSVNTFGKLGCDVDMFLDFHDIQKHATKMKKGPFEMEYQMKRLPSERLATQKILSIIGDCLDNFGPGYSSVQKILNARCPLVKFSHQPTGFQCDLSVSNSIAIRCSELLYIYGCLDPRVRALVFSLRCWARVHGLTNSVPGTWITNFSLTMMIMFFLQKRSPPIIPTLDQLKELADEKDKHVIGGYDCSFVSDLSKIKPTKNTETLDELLCDFFQYFGNFDFRKNSLNLRKGKEVNKPESSPLYIWNPFEQDLNISKNVNQPQLEKFVAMARESAWILQKEDKTQQMINKEPWGLAAVLIPFGKSNPNTMKSRTKGIGSETIKSLLDSLKLSDANNLQKAVGK
# notes: mitochondrial poly(A) polymerase (mtPAP), Gallus gallus, residues 37-568, charge-reversal triple mutant; The methods list K80–81E and K76E apart; the results call it a triple mutant
# B4: chicken mtPAP K112E mutant (enzyme, Gallus gallus, UniProt F1NBW0 37-568, looked up)
# chain: AGGAEETDAEVSARKKTFTEVQTERLEQADRSVLIKCPSKLNEKKLLQYLSSHGKIDNYFFFENRGIHALIEFSEESSVASLQAVTGIPKAAEHHVVPYKSRLFTFTLKNPGSQAAEERPVKISPQSHIPVNELIPKLCHADSISSQMYILLNEYQLTEENIKLRYLACSLVRDFARAYFPDSTVKPFGSSVNTFGKLGCDVDMFLDFHDIQKHATKMKKGPFEMEYQMKRLPSERLATQKILSIIGDCLDNFGPGYSSVQKILNARCPLVKFSHQPTGFQCDLSVSNSIAIRCSELLYIYGCLDPRVRALVFSLRCWARVHGLTNSVPGTWITNFSLTMMIMFFLQKRSPPIIPTLDQLKELADEKDKHVIGGYDCSFVSDLSKIKPTKNTETLDELLCDFFQYFGNFDFRKNSLNLRKGKEVNKPESSPLYIWNPFEQDLNISKNVNQPQLEKFVAMARESAWILQKEDKTQQMINKEPWGLAAVLIPFGKSNPNTMKSRTKGIGSETIKSLLDSLKLSDANNLQKAVGK
# notes: mitochondrial poly(A) polymerase (mtPAP), Gallus gallus, residues 37-568, K112E
# B5: chicken mtPAP R272E mutant (enzyme, Gallus gallus, UniProt F1NBW0 37-568, looked up)
# chain: AGGAEETDAEVSARKKTFTEVQTERLEQADRSVLIKCPSKLNEKKLLQYLSSHGKIDNYFFFENRGIHALIEFSEKSSVASLQAVTGIPKAAEHHVVPYKSRLFTFTLKNPGSQAAEERPVKISPQSHIPVNELIPKLCHADSISSQMYILLNEYQLTEENIKLRYLACSLVRDFARAYFPDSTVKPFGSSVNTFGKLGCDVDMFLDFHDIQKHATKMKKGPFEMEYQMKRLPSEELATQKILSIIGDCLDNFGPGYSSVQKILNARCPLVKFSHQPTGFQCDLSVSNSIAIRCSELLYIYGCLDPRVRALVFSLRCWARVHGLTNSVPGTWITNFSLTMMIMFFLQKRSPPIIPTLDQLKELADEKDKHVIGGYDCSFVSDLSKIKPTKNTETLDELLCDFFQYFGNFDFRKNSLNLRKGKEVNKPESSPLYIWNPFEQDLNISKNVNQPQLEKFVAMARESAWILQKEDKTQQMINKEPWGLAAVLIPFGKSNPNTMKSRTKGIGSETIKSLLDSLKLSDANNLQKAVGK
# notes: mitochondrial poly(A) polymerase (mtPAP), Gallus gallus, residues 37-568, R272E
# Key:
# [1] = target: the molecule itself; assay: crystal structure; hanging drop, 0.2 M NaCl, 0.1 M Bis-Tris pH 5.5, 20–23% PEG 3350; apo crystals and crystals soaked with 10 mM MgCl2 and 10 mM nucleotide; two mtPAP molecules in the asymmetric unit
# [2] = target: the molecule itself; assay: SEC; Superdex-200 elution profiles of WT and mutated mtPAP proteins
Protein,binding result [2],further results
B1,–,stoichiometry N [1]: 2
B2,–,binding result [1]: binds
B3,binds,–
B4,binds,–
B5,binds,–
